For assay [1], the target named is cell surface receptors for collagen on human dermal fibroblasts. Nature of the assay: cell-binding activity relative to the inventive peptide of Examples 1 and 2.
Assay [2] has the same target. Nature of the assay: about 100,000 human fetal dermal fibroblasts on coated glass coverslips, 15 min, attached cells counted; uncoated control 7.01.
Assay [3] has the same target. Nature of the assay: fibroblast attachment to coated coverslips, 15 min.
The target is the same in assay [4]. Nature of the assay: various other similar cell attachment studies on glass or polystyrene.
Assay [5] shares this target. Nature of the assay: fibroblast attachment to coated coverslips, 15 min; reference collagen.
Assay [6] has the same target. Nature of the assay: attachment of fibroblasts to collagen-coated dishes, peptide in the medium at 36 × 10^-6 M; competitor collagen.
Assay [7] shares this target. Nature of the assay: attachment of fibroblasts to collagen-coated dishes, peptide in the medium at 7.2 × 10^-6 M; competitor collagen.
Assay [8] shares this target. Nature of the assay: cell-binding activity relative to the SEQ ID NO:1 peptide.
The target is the same in assay [9]. Put plainly: attachment of fibroblasts to collagen-coated dishes, peptide in the medium at 35 × 10^-6 M; competitor collagen.
The target is the same in assay [10]. Put plainly: attachment of fibroblasts to collagen-coated dishes, polyproline in the medium at 1.7 × 10^-6 M; competitor collagen.
Assay [11] has the same target. Nature of the assay: biological (cell-binding) activity relative to P-15; assay not described there.

No end group written: not given here.

The substance QGIAGQR (SEQ ID NO:4) returned a Relative Cell-Binding Activity (% relative to the SEQ ID NO:1 peptide) in assay [1] of 60. Take “Rat tail tendon collagen (rat tail type I collagen) (from UniProt P02454 152-1207; P02466 86-1125)”: the Concentration of Cells (relative binding of cells after 15 minutes) in [2] amounted to 8.59. Regarding “Inventive peptide Gly-Thr-Pro-Gly-Pro-Gln-Gly-Ile-Ala-Gly-Gln-Arg-Gly-Val-Val (SEQ ID NO:1)”, in assay [3], the increase in cell binding over the control (no collagen or peptide) came to 60%. The potency in binding cells relative to collagen (fold over collagen) in assay [4] was 2. The substance also gave an increase in cell binding over collagen-coated dishes in assay [5] of 40%. In [6], the % Inhibition of Cell Attachment was 88% and the % of Maximal Cell Attachment is 12%. In assay [7], this substance came in with a % Inhibition of Cell Attachment of 85% and a % of Maximal Cell Attachment of 15%. In addition, in assay [2], the Concentration of Cells (relative binding of cells after 15 minutes) is 11.1. The substance “Gln-Gly-Ile-Ala-Gly (SEQ ID NO:8) (peptide)” registered a cell-binding activity relative to the SEQ ID NO:1 peptide in assay [8] of 42%. In assay [9], “human preangiotensinogen 1-14 (from UniProt P01019 25-38) (peptide)” came in with a % Inhibition of Cell Attachment of 12% and a % of Maximal Cell Attachment of 88%. In assay [1], GPQGIAGQR (SEQ ID NO:2) yielded a Relative Cell-Binding Activity (% relative to the SEQ ID NO:1 peptide) of 100.

In assay [1], “Gly-Ile-Ala-Gly-Gln (SEQ ID NO:6) (peptide)” returned a Relative Cell-Binding Activity (% relative to the SEQ ID NO:1 peptide) of 70. QGAIAQ (SEQ ID NO:7) came in with a Relative Cell-Binding Activity (% relative to the SEQ ID NO:1 peptide) in assay [1] of 70.

In assay [10], Polyproline (peptide) came in with a % Inhibition of Cell Attachment of 10% and a % of Maximal Cell Attachment of 90%. Consider dipeptide -Ile-Ala-, for which the biological activity relative to P-15 in [11] was found to be 60%. For the substance “Dynorphin 1-13 (from UniProt P01213 207-219) (peptide)”, in assay [9], the % Inhibition of Cell Attachment was determined as 19% and the % of Maximal Cell Attachment was found to be 81%. Consider FGIAGF (SEQ ID NO:5), for which, in assay [1], the Relative Cell-Binding Activity (% relative to the SEQ ID NO:1 peptide) was 87.

Substance QGIAGQ (SEQ ID NO:3) came in with a Relative Cell-Binding Activity (% relative to the SEQ ID NO:1 peptide) in assay [1] of 120.

Values taken from patent US20020037853A1.
